Reference: patent US20040121341A1 (RESEARCH FOUNDATION OF CITY UNIVERSITY OF NEW YORK, published 2004)
Values belong to the binder of their own block, whether it stands above or below them.

Target: Nogo receptor (NgR)
Test: cell-based or functional assay

- neurite outgrowth of cerebellar neurons on MAG-expressing CHO cells, peptide at 15 uM (FIG. 4): 2 fold
B1: MAG peptide MAG(442-471) (peptide)
peptide: VAFELPSRNVTVNETEREFVYSERSGLLLT

- neurite outgrowth of cerebellar neurons on MAG-expressing CHO cells, peptide at 15 uM (FIG. 4): 2 fold
B2: MAG peptide MAG(422-451) (peptide)
peptide: AAARDTVQCLCVVKSNPEPSVAFELPSRNV
